The text below walks through data of publication PMC2702006 (The Febs Journal, 2009).

Data set [1] deals with the molecule itself. Put plainly: cross-linking.
Data set [2] concerns the molecule itself. Put plainly: FRET or BRET. (Bioluminescence resonance energy transfer reports proximity on the nanometre scale.)
Data set [3] deals with the molecule itself. Nature of the data set: cell-based or functional assay.

B1: human Hsp90β A116N (natural protein)
chain: not shown
Take B1: the binding result in data set [1] is “binds”.

B2: pyrene-labelled human Hsp90β E20C-C366A-A116N (natural protein)
chain: not shown
modifications: N-(1-pyrene)-maleimide label at position 20 (E20C)
In the case of B2, the binding result in data set [2] is reported as “binds”.

B3: human Hsp90β T110I (natural protein)
chain: not shown
In the case of B3, the binding result in data set [1] is listed as “binds”.

B4: human Hsp90β L24R (natural protein)
chain: not shown
As for B4, in data set [3], the “ATPase activity relative to wild-type Hsp90β” value was 6.2 % activity relative to wild-type Hsp90β.
